Experimental data published in doi:10.1101/2020.06.29.177279 (bioRxiv, 2020).
Blank lines part the entries; values can stand above or below the binder they belong to.

Experiments:
Assay in all cases: cryo-EM structure
RPC5 (from HeLa) = molecular target: T1, RPC5 (from HeLa) (human (endogenous in HeLa), UniProt Q9NVU0 1-708)
T1 sequence: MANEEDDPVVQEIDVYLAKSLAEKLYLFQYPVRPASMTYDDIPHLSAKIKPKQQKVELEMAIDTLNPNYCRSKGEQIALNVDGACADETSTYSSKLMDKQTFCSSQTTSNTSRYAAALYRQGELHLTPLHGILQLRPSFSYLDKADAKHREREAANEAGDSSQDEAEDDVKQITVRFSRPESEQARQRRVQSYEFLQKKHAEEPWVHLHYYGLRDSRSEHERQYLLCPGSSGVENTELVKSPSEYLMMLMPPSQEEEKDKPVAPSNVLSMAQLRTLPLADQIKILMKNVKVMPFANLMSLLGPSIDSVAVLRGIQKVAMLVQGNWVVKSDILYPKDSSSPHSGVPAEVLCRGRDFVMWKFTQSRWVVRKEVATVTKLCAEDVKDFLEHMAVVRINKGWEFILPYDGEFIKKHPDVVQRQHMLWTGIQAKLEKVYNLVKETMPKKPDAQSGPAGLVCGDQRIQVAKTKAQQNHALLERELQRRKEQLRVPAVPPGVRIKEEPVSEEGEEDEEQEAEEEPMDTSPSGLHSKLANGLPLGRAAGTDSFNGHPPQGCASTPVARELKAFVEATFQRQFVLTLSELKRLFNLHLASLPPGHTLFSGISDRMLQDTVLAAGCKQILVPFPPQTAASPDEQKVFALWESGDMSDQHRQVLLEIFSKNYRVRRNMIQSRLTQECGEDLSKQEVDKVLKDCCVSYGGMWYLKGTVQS

RPABC1 = RPABC1 (human (endogenous in HeLa), UniProt P19388 1-210)
RPC8 = molecular target: T2, RPC8 (human (endogenous in HeLa), UniProt Q9Y535 1-204)
T2 sequence: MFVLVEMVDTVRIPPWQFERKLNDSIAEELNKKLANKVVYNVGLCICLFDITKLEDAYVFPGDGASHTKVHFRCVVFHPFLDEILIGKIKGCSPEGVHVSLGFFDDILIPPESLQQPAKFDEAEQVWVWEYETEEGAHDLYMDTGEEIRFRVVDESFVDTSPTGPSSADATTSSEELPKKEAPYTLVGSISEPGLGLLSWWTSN

binding result (RPC5 (from HeLa)): binds
B1: RPC4 (from HeLa) (natural protein)
chain: MSEGNAAGEPSTPGGPRPLLTGARGLIGRRPAPPLTPGRLPSIRSRDLTLGGVKKKTFTPNIISRKIKEEPKEEVTVKKEKRERDRDRQREGHGRGRGRPEVIQSHSIFEQGPAEMMKKKGNWDKTVDVSDMGPSHIINIKKEKRETDEETKQILRMLEKDDFLDDPGLRNDTRNMPVQLPLAHSGWLFKEENDEPDVKPWLAGPKEEDMEVDIPAVKVKEEPRDEEEEAKMKAPPKAARKTPGLPKDVSVAELLRELSLTKEEELLFLQLPDTLPGQPPTQDIKPIKTEVQGEDGQVVLIKQEKDREAKLAENACTLADLTEGQVGKLLIRKSGRVQLLLGKVTLDVTMGTACSFLQELVSVGLGDSRTGEMTVLGHVKHKLVCSPDFESLLDHKHR

binding result (RPABC1): binds
B2: RPC1, largest subunit of human Pol III (from HeLa) (natural protein)
chain: MVKEQFRETDVAKKISHICFGMKSPEEMRQQAHIQVVSKNLYSQDNQHAPLLYGVLDHRMGTSEKDRPCETCGKNLADCLGHYGYIDLELPCFHVGYFRAVIGILQMICKTCCHIMLSQEEKKQFLDYLKRPGLTYLQKRGLKKKISDKCRKKNICHHCGAFNGTVKKCGLLKIIHEKYKTNKKVVDPIVSNFLQSFETAIEHNKEVEPLLGRAQENLNPLVVLNLFKRIPAEDVPLLLMNPEAGKPSDLILTRLLVPPLCIRPSVVSDLKSGTNEDDLTMKLTEIIFLNDVIKKHRISGAKTQMIMEDWDFLQLQCALYINSELSGIPLNMAPKKWTRGFVQRLKGKQGRFRGNLSGKRVDFSGRTVISPDPNLRIDEVAVPVHVAKILTFPEKVNKANINFLRKLVQNGPEVHPGANFIQQRHTQMKRFLKYGNREKMAQELKYGDIVERHLIDGDVVLFNRQPSLHKLSIMAHLARVKPHRTFRFNECVCTPYNADFDGDEMNLHLPQTEEAKAEALVLMGTKANLVTPRNGEPLIAAIQDFLTGAYLLTLKDTFFDRAKACQIIASILVGKDEKIKVRLPPPTILKPVTLWTGKQIFSVILRPSDDNPVRANLRTKGKQYCGKGEDLCANDSYVTIQNSELMSGSMDKGTLGSGSKNNIFYILLRDWGQNEAADAMSRLARLAPVYLSNRGFSIGIGDVTPGQGLLKAKYELLNAGYKKCDEYIEALNTGKLQQQPGCTAEETLEALILKELSVIRDHAGSACLRELDKSNSPLTMALCGSKGSFINISQMIACVGQQAISGSRVPDGFENRSLPHFEKHSKLPAAKGFVANSFYSGLTPTEFFFHTMAGREGLVDTAVKTAETGYMQRRLVKSLEDLCSQYDLTVRSSTGDIIQFIYGGDGLDPAAMEGKDEPLEFKRVLDNIKAVFPCPSEPALSKNELILTTESIMKKSEFLCCQDSFLQEIKKFIKGVSEKIKKTRDKYGINDNGTTEPRVLYQLDRITPTQVEKFLETCRDKYMRAQMEPGSAVGALCAQSIGEPGTQMTLKTFHFAGVASMNITLGVPRIKEIINASKAISTPIITAQLDKDDDADYARLVKGRIEKTLLGEISEYIEEVFLPDDCFILVKLSLERIRLLRLEVNAETVRYSICTSKLRVKPGDVAVHGEAVVCVTPRENSKSSMYYVLQFLKEDLPKVVVQGIPEVSRAVIHIDEQSGKEKYKLLVEGDNLRAVMATHGVKGTRTTSNNTYEVEKTLGIEAARTTIINEIQYTMVNHGMSIDRRHVMLLSDLMTYKGEVLGITRFGLAKMKESVLMLASFEKTADHLFDAAYFGQKDSVCGVSECIIMGIPMNIGTGLFKLLHKADRDPNPPKRPLIFDTNEFHIPLVT

binding result (RPC8): binds
B3: RPC9 (natural protein)
chain: not shown
